Reference: publication PMC9242855

Target: CMGE (Cdc45–MCM–GINS–Pol ε) (S. cerevisiae) (UniProt P29469)
Assay: negative-stain electron microscopy (2D averages, ReconSil); full CMG assembly reaction on nucleosome-flanked ARS1 origin DNA; DDK-phosphorylated double hexamers incubated with CDK, Dpb11, GINS, Cdc45, Pol ε, Sld3–Sld7, Sld2 and 5 mM ATP, 30 min at 30 °C

CMGE (Cdc45–MCM–GINS–Pol ε) (from UniProt P29469 1-868; P24279 1-971; P30665 1-933; P29496 1-775; P53091 1-1017; P38132 1-845; Q08032 1-650; Q03406 1-294; Q12146 1-194; P21951 1-2222; P24482 1-689) (complex)
percent of CMG particles that are dimers (dCMGE, cis configuration): 11% | percent of CMG particles that are dimers (dCMGE, trans configuration): 70%
